Experimental data as given in patent publication US8796209B2, “Compositions and methods related to anti-FGF agents” (The Regents of the University of California, priority 2005, dated 2014).
Positions count from the first letter of the chain named. “Also recorded” adds a separate entry of the source.

B1: 4xE: FGF-1 mutant, Lys127/Lys128/Lys133/Arg134 simultaneously to Glu (protein)
chain: FNLPPGNYKKPKLLYCSNGGHFLRILPDGTVDGTRDRSDQHIQLQLSAESVGEVYIKSTETGQYLAMDTDGLLYGSQTPNEECLFLERLEENHYNTYISKKHAEKNWFVGLEENGSCEEGPRTHYGQKAILFLPLPVSSD
B2: 3xA: FGF-1 mutant, three residues in the FGFR binding site (Glu102/Tyr109/Asn110) to Ala (protein)
chain: B1 chain with E87A, Y94A, N95A, E112K, E113K, E118K, E119R

Key:
integrin αvβ3 = target: T1, integrin αvβ3 (Homo sapiens, UniProt P05106+P06756); test: Soluble integrin binding assay (ELISA-type), soluble αvβ3 on immobilized FGF; conditions: for effect of the mutation on binding of soluble αvβ3 to FGF-1: mutant coated to plate; for αvβ3 binding: phenotype of FGF-1 mutants, Table 2
T1 construct: using the soluble αv and β3 expression constructs provided by Tim Springer; made in house; host or cells: CHO K1
T1 sequence (P06756 31-992 limits assumed): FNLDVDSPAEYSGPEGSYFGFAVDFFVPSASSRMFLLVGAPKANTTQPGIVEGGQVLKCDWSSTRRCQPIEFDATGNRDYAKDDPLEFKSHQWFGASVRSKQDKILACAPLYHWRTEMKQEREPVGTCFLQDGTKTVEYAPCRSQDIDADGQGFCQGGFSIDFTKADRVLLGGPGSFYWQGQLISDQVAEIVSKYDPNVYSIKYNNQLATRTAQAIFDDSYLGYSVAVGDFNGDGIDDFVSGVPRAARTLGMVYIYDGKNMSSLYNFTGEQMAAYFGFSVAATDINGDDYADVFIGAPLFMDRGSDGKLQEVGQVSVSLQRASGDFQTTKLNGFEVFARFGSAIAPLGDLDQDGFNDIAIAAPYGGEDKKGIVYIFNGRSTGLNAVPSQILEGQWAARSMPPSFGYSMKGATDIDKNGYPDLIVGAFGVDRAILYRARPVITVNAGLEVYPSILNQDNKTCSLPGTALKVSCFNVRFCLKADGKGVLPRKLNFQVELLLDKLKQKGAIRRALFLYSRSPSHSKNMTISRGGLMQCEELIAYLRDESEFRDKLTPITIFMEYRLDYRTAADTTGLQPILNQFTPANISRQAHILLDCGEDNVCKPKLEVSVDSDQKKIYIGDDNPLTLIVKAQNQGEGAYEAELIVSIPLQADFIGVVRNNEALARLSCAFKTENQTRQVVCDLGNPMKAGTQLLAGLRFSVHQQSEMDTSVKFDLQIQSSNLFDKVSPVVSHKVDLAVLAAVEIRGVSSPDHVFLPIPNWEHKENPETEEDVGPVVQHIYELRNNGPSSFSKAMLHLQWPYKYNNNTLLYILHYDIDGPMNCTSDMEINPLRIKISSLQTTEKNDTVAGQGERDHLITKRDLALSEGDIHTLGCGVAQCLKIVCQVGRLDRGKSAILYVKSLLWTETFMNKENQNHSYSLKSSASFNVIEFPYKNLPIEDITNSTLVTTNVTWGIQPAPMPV
T1 sequence (P05106 27-718 limits assumed): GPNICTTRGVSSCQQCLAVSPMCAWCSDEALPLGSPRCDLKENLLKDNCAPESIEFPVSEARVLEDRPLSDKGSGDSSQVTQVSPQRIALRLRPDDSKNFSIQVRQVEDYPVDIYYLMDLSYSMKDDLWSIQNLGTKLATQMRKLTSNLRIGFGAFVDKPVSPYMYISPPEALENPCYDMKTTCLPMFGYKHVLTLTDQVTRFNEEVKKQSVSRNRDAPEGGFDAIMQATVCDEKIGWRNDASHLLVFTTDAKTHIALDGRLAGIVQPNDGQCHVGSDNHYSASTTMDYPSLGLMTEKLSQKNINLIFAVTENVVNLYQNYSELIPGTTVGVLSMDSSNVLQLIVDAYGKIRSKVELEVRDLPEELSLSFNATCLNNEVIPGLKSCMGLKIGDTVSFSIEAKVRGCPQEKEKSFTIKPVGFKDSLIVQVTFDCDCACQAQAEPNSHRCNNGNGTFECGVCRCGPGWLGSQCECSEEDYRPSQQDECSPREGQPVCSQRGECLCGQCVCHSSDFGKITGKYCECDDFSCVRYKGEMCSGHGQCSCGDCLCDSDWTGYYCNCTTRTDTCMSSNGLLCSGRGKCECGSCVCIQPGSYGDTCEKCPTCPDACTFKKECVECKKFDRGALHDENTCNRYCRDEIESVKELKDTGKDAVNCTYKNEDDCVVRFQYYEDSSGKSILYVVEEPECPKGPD
Experimental: Wells of 96-well microtiter plates were coated with 10 μg/ml FGF-1 or FGF-2 and remaining protein binding sites were blocked with 1 mg/ml BSA. Recombinant soluble αvβ3 (50 μl/well at 5 μg/ml in Hepes-Tyrode buffer supplemented with 1 mM MnCl2) was added to wells and incubated for 1 h at room temperature. Soluble αvβ3 was incubated with 10 μg/ml 7E3 (white bar) or mouse IgG (black bar) for 10 min on ice prior to adding to the wells. BSA (circle) was used as a negative control. Data is shown as means+/−SD of triplicate experiments.
FGF-1 (10 μg/m) was heat-treated at indicated temperature for 10 min prior to immobilization. Binding of soluble αvβ3 was determined as described in FIG. 1. Data is shown as percent binding+/−SD of triplicate experiments.
Amino acid residues in the integrin-binding site or in the FGFR-binding site were mutated individually or in groups. Wild-type (diamond), R50E (open square), N33A (closed square), 4xE (circle), 3xA (triangle) were coated to a plastic plate various concentration as indicated and the binding of soluble αvβ3 was determined as described in FIG. 2. BSA (cross) was used as a negative control. […] “4xE” represents the K127E/K128E/K133E/R134E mutant. “3xA” represents the E102A/Y109A/Q110A mutant.
Binding assays were performed as previously described (Takagi et al., 2001). Native or heat-denatured FGF-1 in 0.1 M carbonate buffer, pH 9.4, were incubated in a polystyrene 96-well non-tissue culture plates surface overnight at 4° C. Unbound FGF-1 was removed, and 200 μl of 0.1% bovine serum albumin in PBS was added and incubated for 60 min at room temperature. The wells were washed with PBS and soluble integrin αvβ3 in 50 μl in Hepes-Tyrode buffer supplemented with 1 mM Mn^2+ were added to the wells and incubated at room temperature for 60 min. After non-bound soluble integrin were removed by rinsing the wells with the same buffer. Horseradish peroxidase (HRP) conjugated anti His-tag mouse IgG was added to well and incubated 60 min. Non-bound antibodies were removed by rinsing the wells with the same buffer, bound integrins were quantified by measuring the absorbance of 450 nm developed from adding the substrate (3,3′,5,5′-tetramethylbenzidine) of HRP unbound protein was aspirated, and the wells were washed with PBS three times.

Balb 3T3 cells [1] = test: DNA synthesis by BrdU incorporation; type: cell-based, mouse; conditions: for effect of the mutation on FGF-1 induced BrdU incorporation: 5 ng/ml, 5 μg/ml heparin, 24 h; for DNA synthesis: phenotype of FGF-1 mutants, Table 2
Experimental: Balb 3T3 cells were plated on cover slips in 6-well culture plates, serum starved (DMEM, 0.4% fetal calf serum) for 48 h, and stimulated with 5 ng/ml wild-type and mutant FGF-1s in the presence of 5 μg/ml heparin for 24 h. BrdU was added to the medium for the last 6 h of the incubation. Cells were fixed and incubated with anti BrdU antibody. BrdU incorporated cells were stained with DAB. The mean value of BrdU positive cells from wild type-treated culture was set to 100%, and the corresponding results from mutant-treated cultures were scaled accordingly. Results are shown as means±S.D. Asterisks indicate significant differences (p<0.05) compared with wild type treatment.
DNA synthesis was measured by BrdU incorporation. Balb 3T3 cells were plated on sterile cover slips in 6-well culture plates and serum starved in DMEM supplemented with 0.4% fetal calf serum for 48 h, and stimulated with 5 ng/ml wild type and mutant FGF-1s for 24 h in the presence and absence of 5 μg/ml heparin. BrdU (10 μg/ml) was added to the medium for the last 6 h of the incubation. Cells were then fixed with 70% ethanol and incubated with 2N HCI. After the medium was neutralized with 0.1 M borate buffer (pH 8.5), the cells were incubated with anti-BrdU antibody (BD PharMingen, San Diego, Calif.). BrdU incorporated cells were stained with HRP conjugated secondary antibody (Biorad) and metal enhanced diaminobenzidine substrate kit (Pierce, Rockford, Ill.). Diaminobenzidine positive and negative cells were counted from the digital images of three independent fields.

Balb 3T3 cells [2] = test: Chemotaxis assay (Transwell); type: cell-based, mouse; conditions: for effect of the mutation on FGF-1-induced chemotaxis: 5 ng/ml, 24 h; for Chemotaxis: phenotype of FGF-1 mutants, Table 2
Experimental: The bottom of the polycarbonate filter of the Transwell apparatus was coated with 10 μg/ml of fibronectin. The lower chamber contained 600 μI of serum-free DMEM containing 5 ng/ml wild-type or mutants FGF-1. Balb 3T3 cells (10^5 cells/filter) were plated on filter and incubated 37° C. for 24 h, and cells were stained with crystal violet. Cells that migrated to the bottom side of the membrane were counted. Results are expressed as means of the number of migrated cells in 2 fields.
A polycarbonate filter of 8 μm pore size of the Transwell insert was coated with 10 μg/ml of fibronectin (Sigma) overnight at 4° C. After washing, the insert was placed into a 24-well cell culture plate, and the lower portion of the plate was filled with 600 μl of serum-free DMEM containing 5 ng/ml wild type or mutant FGF-1. Balb 3T3 cells (10^5 cells/filter) were plated on filter and incubated 37° C. for 24 h, and cells were visualized by crystal violet staining (0.5% crystal violet in 50 mM Borate, pH 9.0, and 2% ethanol). The uncoated side of each filter was wiped with a cotton swab to remove cells that had not migrated through the filter. Migrated cells were counted from the digital images of stained cells. Determining the mean number of cells counted per field. Results are expressed as means±SD of the relative cell number with non-stimulated cells set as 100).

FRS2α = test: FRS2 phosphorylation, western blot; type: cell-based; conditions: mouse fibroblasts
Experimental: The same cell lysates as described above were analyzed by western blotting with anti-phospho FRS2 or anti-FRS2, where; 1: Wild type; 2: R50E; 3: 4xE; 4: 3xA; 5: None; and 6: FBS.
This experiment tested how the FGF1 mutations affect phosphorylation of FRS2α.

[3] = tested on: Human microvascular endothelial (HMVE) cells; test: Tube formation by endothelial cells on Matrigel; type: cell-based; conditions: 24 h
Experimental: Digital images were taken by using a fluorescent microscope and analyzed by using ImageJ, using human microvascular endothelial (HMVE) cells added to the matrix-coated wells of 96-well plates at 2×10^4 cells/well in medium M-131 plus 0.1% hydrocortisone and 0.1% FBS for. Cells were incubated for 24 h in the presence of wt or mutant FGF. To enhance images, calcein AM was added to the medium.
Wells of 96-well FluoroNunc black plates were coated with 50 μl of matrigel basement membrane matrix (BD Bioscience) and allowed to gel at 37° C. for 30 min. Endothelial cells growing on the tissue culture plastic were trypsinized, washed, and added to the matrix-coated wells at 2×10^4 cells/well. Plating was performed in medium M-131 plus 0.1% hydrocortisone and 0.1% FBS for Human microvascular endothelial (HMVE) cells. Cells were incubated for 24 h in the presence of wt or mutant FGF. To enhance images, calcein AM (Invitrogen) was added to the medium (10 μg/ml) and incubated for 15 min at 37° C. Digital images were taken by using a fluorescent microscope and analyzed by using ImageJ. (FIGS. 9A and 9B).

Molecule	effect of the mutation on binding of soluble αvβ3 to FGF-1 (integrin αvβ3)	αvβ3 binding (integrin αvβ3)	effect of the mutation on FGF-1 induced BrdU incorporation (Balb 3T3 cells [1])	DNA synthesis (Balb 3T3 cells [1])	effect of the mutation on FGF-1-induced chemotaxis (Balb 3T3 cells [2])	Chemotaxis (Balb 3T3 cells [2])	FRS2α phosphorylation (FRS2α)	tube formation by endothelial cells on matrigel [3]	binding of soluble αvβ3 to the immobilized protein (integrin αvβ3; coated at 10 μg/ml, soluble αvβ3 5 μg/ml, 1 mM MnCl2)	binding of soluble αvβ3 to heat-denatured protein (integrin αvβ3; heat-denatured, heat-treated 10 min before immobilization)
R50E: FGF-1 mutant with the Arg-50 to Glu (R50E) mutation	blocked the binding; also recorded: effectively blocked	Low	significantly blocked	Low	blocked	Low	abolished	block tube formation		
Wild type: human FGF-1 (acidic FGF), wild type, expressed in E. coli		Normal		Normal		Normal	induced	enhanced	bound	did not bind
B1	effectively blocked	Low	significantly blocked	Low	blocked	Low	abolished			
B2	did not affect	Normal	also blocked	Low		Low	abolished			
